Laboratory results reported in the nanobody polyreactivity screen of Harvey et al. (2022).

Test: yeast display, Sf9 membrane polyspecificity reagent, FACS + sequencing; frameworks hold sequencing errors
How it was run: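 Polyreactivity labels are assigned by the sorting gate from which each nanobody was recovered. The gates were low and high (top ~1%), set on anti-HA fluorescence for expression and streptavidin fluorescence for reagent binding. Before sorting, galactose-induced (36–48 hours) yeast display cells were stained for 1 hour at 4 °C with 10% biotinylated, detergent-solubilized Sf9 membrane reagent.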
With “QVQLVESGGGLVQAGGSLRLSCAASGRIFRGYTMGWYRQAPGKEREFVAAITANGGRTYYADSVKGRFTISRDNAKNTVYLKMNSLKPEDTAVYYCNARTYTYRGSFDYWVQGTQVTVSS” the “polyreactivity (PSR sort gate)” value was “high polyreactivity”.
In the case of “QVQLVESGGGLVQAGGSLRLSCAASGRIFRHKTLGWYRQAPGKEREMVAGITASGGDTYYADSVKGRFTISRDNAKNTVYLQMNSLKPEDTAVYYCATSQYGYRSWPGLYYWGQGTQVTVSS”, the “polyreactivity (PSR sort gate)” value is reported as “low polyreactivity”.
In the case of “QVQLVESGGGLVQAGGSLRLSCAASGRIFRINAMGWYRPAPGKERELVAAITRGGSTNYADSVKGRFTISRDNAKNTVYLQMNSLKPEDTAVYYCAADVSTYYYPGWFKLYLFDYWGQGTQVTVSS”, the “polyreactivity (PSR sort gate)” value is reported as “high polyreactivity”.
With “QVQLVESGGGLVQAGGSLRLSCAASGRIFRKNVMGWYRQAPGKERELVATIRTGGTTNYADSVKGRFTISRDNAKNTVYLQMNSLKPEDTAVYYCAADRGGRAGFDYWGQGTQVTVSS” the “polyreactivity (PSR sort gate)” value was “high polyreactivity”.
For “QVQLVESGGGLVQAGGSLRLSCAASGRIFRLNAMGWYRQAPGKERELVAAITVSDSSTYADSVKGRFTISRDNAKNTVYLQMNSLKPEDTAVYYCNRDTYTEYAHSWRGWSVIFDYWGQGTQVTVSS”, the “polyreactivity (PSR sort gate)” value was “high polyreactivity”.
In the case of “QVQLVESGGGLVQAGGSLRLSCAASGRIFRLYAMGWYRQAPGKERELVAAISFSGSRTYYADSVKGRFTISRDNAKNNVYLQMNSLQPEDTAVYYCNKDHYVRYGLDYWGQGTQVTVSS”, the “polyreactivity (PSR sort gate)” value is reported as “high polyreactivity”.
For “QVQLVESGGGLVQAGGSLRLSCAASGRIFRLYAMGWYSQEPGKDRELVATITSGGTYYADSVKGRFTISRDNAKNTVYLQMISLSPEDTAVYYCTARRRLRYDFWGQGTQVTVSS”, the “polyreactivity (PSR sort gate)” value was “low polyreactivity”.
For “QVQLVESGGGLVQAGGSLRLSCAASGRIFRPYAMGWYRQAPGKERELVAAISVSGVITYYADSVKGRFTISRDNAKNTVYLQMISLKPEDTAVYYCATDYTPRRWGRLYDYWGQGTQVTVSS”, the “polyreactivity (PSR sort gate)” value was “low polyreactivity”.
In the case of “QVQLVESGGGLVQAGGSLRLSCAASGRIFRPYAMGWYRQAPGKERELVATITGSGGTTYYADSVKGRFTISRDNAKNSVYFQMNSLKPEDTAVYYCNVDPRSDIIPMDYWGQGTQVTVSS”, the “polyreactivity (PSR sort gate)” value is reported as “low polyreactivity”.
In the case of “QVQLVESGGGLVQAGGSLRLSCAASGRIFRPYTMGWYRQAPGKERELVAANSWRGGSTYYADSVKVRFTISLDNAKNTVYLLINSLKPEATAVYYCATYVKVIRTAGTRPKMGYWGQVTQVTVSS”, the “polyreactivity (PSR sort gate)” value is reported as “high polyreactivity”.
In the case of “QVQLVESGGGLVQAGGSLRLSCAASGRIFRRNTMGWSRQAPGKERELVAAITSSGGSTYADSVKGRFTISRDNAKKTVYLQMNSLKPEDTAVYYCATYVAYHRGYRTYDHWGQGTQVTVSS”, the “polyreactivity (PSR sort gate)” value is reported as “low polyreactivity”.
With “QVQLVESGGGLVQAGGSLRLSCAASGRIFRRNTMGWYRQAPGKERELVAAITSSGGSTYADSVKGRFTISRDNAKNTVYLQMNSLKPEDTAVYYCAAVRLYRYDYWGQGTQVTVSS” the “polyreactivity (PSR sort gate)” value was “low polyreactivity”.
With “QVQLVESGGGLVQAGGSLRLSCAASGRIFRRYAMGWYRQAPGKEREFVAAITDGSTYYADSVKGRFTISRDNAKNTVYLQMNSLKPEDTAVYYCATQYGWSYSRRFYYWGQGTQVTVSS” the “polyreactivity (PSR sort gate)” value was “high polyreactivity”.
For “QVQLVESGGGLVQAGGSLRLSCAASGRIFRRYAMGWYRQAPGKERELVAAITRSGGSTYYADSVKGRFTISRDNAKNTVYLQMNSLKPEDTAVYYCAARQVGRYYYLSRYYYWGQGTQVTVSS”, the “polyreactivity (PSR sort gate)” value was “high polyreactivity”.
With “QVQLVESGGGLVQAGGSLRLSCAASGRIFRRYAMGWYRQAPGTERELVAAITASGGITYYADSVKGRFTISRDNAKNTVYLQMNSLKPEDTAVYYCAARGSSGYDYWGQGTQVTVSS” the “polyreactivity (PSR sort gate)” value was “high polyreactivity”.
With “QVQLVESGGGLVQAGGSLRLSCAASGRIFRSYAMGWYREAPGKERELVAAISSGGSTNYADSVKGRFTISRDNAKNTVYLQLNSLKPEDTAVYYCAAELWAYTWYWHSDYWGQGTQVTVSS” the “polyreactivity (PSR sort gate)” value was “low polyreactivity”.
For “QVQLVESGGGLVQAGGSLRLSCAASGRIFRSYAMGWYRQAPGKERELVAAISRSGGSTYYADSVKGRFTISRDNAKNTVYLQMNSLKPEDTAVYYCAGVYTYPLGYYHYTYDYWGQGTQVTVSS”, the “polyreactivity (PSR sort gate)” value was “low polyreactivity”.
With “QVQLVESGGGLVQAGGSLRLSCAASGRIFRSYAMGWYRQAPGKERELVAAITWSGGSTYYADSVKGRFTISRDNAKNTVYLQMHSLKPEDTAVYYCARVVTKKYSHTGYEYWGQGTQVTVSS” the “polyreactivity (PSR sort gate)” value was “high polyreactivity”.
For “QVQLVESGGGLVQAGGSLRLSCAASGRIFRSYAMGWYRQAPGKERELVAAMTWGGGRTYYADSVKGRFTISRDNAKNTVYLQMNSLKPEDTAVYYCNTLAYPYYRGSKYDYWGQGTQVTVSS”, the “polyreactivity (PSR sort gate)” value was “high polyreactivity”.
For “QVQLVESGGGLVQAGGSLRLSCAASGRIFRTNAMGWYRQAPGKERELVAAISDSGADTSYADSVKGRFTISRDNAKNTVYLQMNSLKPEDTAVYYCNRGRVYYRYLKDYDYWGQGTQVTVSS”, the “polyreactivity (PSR sort gate)” value was “low polyreactivity”.
In the case of “QVQLVESGGGLVQAGGSLRLSCAASGRIFRTYALGWYRQAPGKERELVAAINSGGTTYYADSVKGRFTISRDNAKNTVYLQLNSLKPEDTAVYYCNAEYYYAFLRLWYDYWGQGTQVTVSS”, the “polyreactivity (PSR sort gate)” value is reported as “high polyreactivity”.
For “QVQLVESGGGLVQAGGSLRLSCAASGRIFRTYAMGWYRQAPGKERELVAAINSVDRTYYADSVKGRFTISRDNAKNTVYLQMNSLKPEDTAVYYCAARGYRGHDEFGYWGQGTQVTVSS”, the “polyreactivity (PSR sort gate)” value was “high polyreactivity”.
With “QVQLVESGGGLVQAGGSLRLSCAASGRIFRTYAMGWYRQAPGKERELVAAIRSGGSTKYADSVKGRFTISRDNAKNTVYLQMNSLKPEDTAVYYCAAAVLGRYSAGDGYWGQGTQVTVSS” the “polyreactivity (PSR sort gate)” value was “low polyreactivity”.
With “QVQLVESGGGLVQAGGSLRLSCAASGRIFRVYAMGWYRQAPGKERELVAAISSYGGSTYYADSVKGRFTISRDNAKNTVYLQMNSLIPEDTAVYYCAAESSPDGYFLSDYWGQGTQVTVSS” the “polyreactivity (PSR sort gate)” value was “low polyreactivity”.
In the case of “QVQLVESGGGLVQAGGSLRLSCAASGRIFRWYALGWYRQAPGKERELVAAISSRGGSTYYADSVKGRFTISRDNAKNTVYLQLNSLKPEDTAVYYCAADTSGWQPRYDYWGQGTQVTVSS”, the “polyreactivity (PSR sort gate)” value is reported as “high polyreactivity”.
For “QVQLVESGGGLVQAGGSLRLSCAASGRIFRWYAMGWYRQAPGKERELVAAISYSGGSTYYADSVKGRFTISRDNAKNTVYLQMNSLKPEDTAVYYCAAATYYKFDYWGQGTQVTVSW”, the “polyreactivity (PSR sort gate)” value was “high polyreactivity”.
With “QVQLVESGGGLVQAGGSLRLSCAASGRIFRWYAMGWYRQAPGKERELVAGINYGGGRTYYADSVKGRFTISRDNAKNTVYLQMNSLNPEDTAVYYCAAGISGHYYWGQGTQVTVSS” the “polyreactivity (PSR sort gate)” value was “high polyreactivity”.
In the case of “QVQLVESGGGLVQAGGSLRLSCAASGRIFRWYAMGWYRQAPGKERELVATISSSGRTNYADSVKGRFTISRDNAKNTVYLQMNSLKPEETAVYYCNADGGDWFGYVGMDYWGQGTQVTVSS”, the “polyreactivity (PSR sort gate)” value is reported as “high polyreactivity”.
In the case of “QVQLVESGGGLVQAGGSLRLSCAASGRIFRYNAMGWYRQAPGKEREFVAAITSSGAGTHYADSVKGRFTISRDNAKNTVYLQMNSLKPEDTAVYYCNARGYYSKNSYDYYTGDYWGQGTQVTVSS”, the “polyreactivity (PSR sort gate)” value is reported as “high polyreactivity”.
With “QVQLVESGGGLVQAGGSLRLSCAASGRIFRYNAMGWYRQAPGKERELVAAISSVGSTNYADSVKGRFTISRDNAKNTVYLQMNSLKPEDTAVYYCNAVVRSYVKTYRYYKVDYWGQGTQVTVSS” the “polyreactivity (PSR sort gate)” value was “high polyreactivity”.
